Article doi:10.1101/2025.05.09.653011 (bioRxiv, 2025)

How the values were obtained:
[1] = target: Human wild-type peptidylprolyl cis-trans isomerase A (PPIA) (human, UniProt P62937 2-165); experiment: NMR titration
Human PPIA K76E mutant = Human PPIA K76E mutant (human, UniProt P62937 2-165, K76E); experiment: NMR titration
Sequence of Human PPIA K76E mutant (P62937 2-165 K76E): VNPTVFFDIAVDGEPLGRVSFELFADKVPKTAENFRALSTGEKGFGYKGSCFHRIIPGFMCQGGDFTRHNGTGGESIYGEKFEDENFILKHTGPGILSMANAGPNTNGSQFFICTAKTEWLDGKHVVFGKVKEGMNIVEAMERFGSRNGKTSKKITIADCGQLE

Sequence of Human wild-type peptidylprolyl cis-trans isomerase A (PPIA) (P62937 2-165): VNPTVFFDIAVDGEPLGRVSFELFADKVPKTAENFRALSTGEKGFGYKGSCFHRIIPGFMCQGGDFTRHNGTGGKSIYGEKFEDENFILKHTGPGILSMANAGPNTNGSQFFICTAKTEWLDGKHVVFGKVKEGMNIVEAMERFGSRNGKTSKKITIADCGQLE

binding result [1]: binds | binding result (Human PPIA K76E mutant): binds
Binder: Ac-FGPDLPAGD-NH2 [Ac-FGPDLPAGD-NH2]
